Reference: patent US20250145722A1 (TRUEBINDING, published 2025)

Columns and labels:
[1] = target: T1, human Galectin-3 (Gal3), full-length recombinant (human, UniProt P17931 2-250); assay: blocking ELISA, Gal3 coated, PDGFR alpha-Fc, antibody 20 µg/ml
T1 construct: treated here as one molecule; also called hGAL3; hGal3
Experimental: (§1) After incubating the plate at 4° C. overnight, the plate was washed three times with PBST. The plate was then blocked for an hour with 2% BSA in PBST at room temperature with gentle rocking. […] The respective plates were incubated for an hour at room temperature with gentle rocking. Thereafter, the plate was washed three times with PBST. Peroxidase AffiniPure F(ab′)₂ Fragment Goat Anti-Human IgG (H+L) polyclonal antibody was then added to the wells at 1:4000 dilution in 2% BSA in PBST. The plate was incubated at room temperature for an hour with gentle rocking and then washed three times with PBST. TMB substrate was then added to each well. The reaction was stopped with 1M HCl and read using a plate reader (Molecular Devices, SpectraMax M4) at absorbance of 450 nm.

[2] = target: T1, human Galectin-3 (Gal3), full-length …; assay: blocking ELISA, Gal3 coated, VEGFR3-Fc, antibody 20 µg/ml
Experimental: as §1

[3] = target: T1, human Galectin-3 (Gal3), full-length …; assay: blocking ELISA, Gal3 coated, EGFR-Fc, antibody 20 µg/ml
Experimental: as §1

[4] = target: T1, human Galectin-3 (Gal3), full-length …; assay: Gator biosensor kinetics (legend: SPR), 6H6 mIgG2a loaded on probes, rhGalectin-3 as analyte, 1:1 fit
[5] = target: T1, human Galectin-3 (Gal3), full-length …; assay: Gator biosensor kinetics, antibody loaded on probe, rhGal3-His in solution, 1:1 fit
Text: The binding affinities were characterized by fitting the kinetic sensorgrams to a monovalent binding model (1:1 binding).

[6] = target: T1, human Galectin-3 (Gal3), full-length …; assay: blocking ELISA, Gal3 coated, PDGFR beta-Fc, antibody 20 µg/ml
Experimental: as §1

T1 sequence (P17931 2-250 limits assumed): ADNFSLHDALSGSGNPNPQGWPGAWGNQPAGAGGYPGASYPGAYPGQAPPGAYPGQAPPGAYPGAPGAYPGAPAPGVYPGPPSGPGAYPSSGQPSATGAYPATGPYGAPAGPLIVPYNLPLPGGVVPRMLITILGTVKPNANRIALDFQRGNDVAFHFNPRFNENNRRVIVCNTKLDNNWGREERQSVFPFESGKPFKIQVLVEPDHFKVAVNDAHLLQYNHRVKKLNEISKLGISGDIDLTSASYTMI

B1: 6H6.2D6 (antibody, human IgG4 S228P, kappa, V domains shown)
VH: QIQLVQSGPELKKPGETVKISCKASGYTFTTYGMSWVKQAPGKGLKWMAWINTYSGVPTYADDFKGRFAFSLETSASTAYLQINNLTNEDTATYFCARGPYAMDYWGQGTSVTVSS
VL: DIQMTQTTSSLSASLGDRVTISCSASQGISNYLNWYQQKPDGTVKLLIYYTSSLHSGVPSRFSGSGSGTDYSLTISNLEPEDIATYYCQQYSELPYTFGSGTKLEIKR
- % blocking of Gal3-PDGFR alpha binding [1]: > 70%
- % blocking of Gal3-VEGFR3 binding [2]: > 70%
- % blocking of Gal3-EGFR binding [3]: > 70%
- koff [4]: 0.000299 s⁻¹
- kon [4]: 88000 M⁻¹ s⁻¹
- Kd [5]: 3.39 nM
- % blocking of Gal3-PDGFR beta binding [6]: > 70%
